The target of assay [1] is full-length gB (Towne strain) expressed on HEK293T cells (UniProt P13201). Nature of the assay: flow cytometry on cells. The note with it: three-point, 10-fold mAb serial dilution starting at 0.1 μg/mL; parent: 94. A general note: In flow cytometry, cells or beads pass a laser one at a time.
For assay [2], the target named is CMV gB ectodomain protein. Nature of the assay: ELISA. The following applies: parent: 171.7. (In an ELISA, binding on a coated surface is turned into a signal by an enzyme label.)

“TRL345 unmutated common ancestor (UCA) mAb H:A33N; H:Y52aN”: the other: AUC in assay [1] amounted to 140 AUC. Consider “TRL345 unmutated common ancestor (UCA) mAb H:A33N; H:Y52aN; L:N53D”, for which, in assay [1], the other: AUC was 143 AUC. Still for that read-out and setting: as for “TRL345 unmutated common ancestor (UCA) mAb H:A33N; H:Y52aN; L:S30G”, the figure is 144 AUC; as for “TRL345 unmutated common ancestor (UCA) mAb H:A33N; L:N53D”, 180 AUC. Consider “TRL345 unmutated common ancestor (UCA) mAb H:A33N; L:S30G”, for which the other: AUC in assay [1] came out at 207 AUC. For the substance “TRL345 unmutated common ancestor (UCA) mAb H:A33N; L:S30G; L:N53D”, the other: AUC in assay [1] amounted to 138 AUC. By EC50 is commonly meant the concentration at which the effect is half-maximal. With “TRL345 unmutated common ancestor (UCA) mAb H:Y52aN”, in assay [2], the EC50 worked out at 0.0851 µg/mL. For “TRL345 unmutated common ancestor (UCA) mAb H:Y52aN; L:N53D”, the EC50 in assay [2] is 0.0094 µg/mL. Further, the other: AUC in assay [1] turned out to be 109 AUC. For the substance “TRL345 unmutated common ancestor (UCA) mAb H:Y52aN; L:S30G”, the other: AUC in assay [1] was 124 AUC. Regarding “TRL345 unmutated common ancestor (UCA) mAb H:Y52aN; L:S30G; L:N53D”, the EC50 in assay [2] came out at 0.0077 µg/mL. On to “TRL345 unmutated common ancestor (UCA) mAb L:N53D”, for which the EC50 in assay [2] is 0.0197 µg/mL. Besides, the other: AUC in assay [1] was determined as 90 AUC.

On to “TRL345 unmutated common ancestor (UCA) mAb L:S30G”, for which, in assay [2], the EC50 worked out at 0.0127 µg/mL. On to “TRL345 unmutated common ancestor (UCA) mAb L:S30G; L:N53D”, for which the other: AUC in assay [1] is 107 AUC.
